Results published in patent US10907134B2, “Mutated genes for the catalytic protein of oplophorus luciferase and use thereof” (JNC CORPORATION, priority 2013, dated 2021).
Changes are numbered by the printed parent chain. In names and notes the source's numbering stands.

B1: KAZ-Q11R: KAZ with single amino acid substitution Q11R (protein)
chain: FTLADFVGDWRQTAGYNQDQVLEQGGLSSLFQALGVSVTPIQKVVLSGENGLKADIHVIIPYEGLSGFQMGLIEMIFKVVYPVDDHHFKIILHYGTLVIDGVTPNMIDYFGRPYPGIAVFDGKQITVTGTLWNGNKIYDERLINPDGSLLFRVTINGVTGWRLCENILA
B2: KAZ-L72Q: KAZ with single amino acid substitution L72Q (protein)
chain: B1 chain with R11Q, L72Q
B3: KAZ-M75K: KAZ with single amino acid substitution M75K (protein)
chain: B1 chain with R11Q, M75K
B4: KAZ-K43R: KAZ with single amino acid substitution K43R (protein)
chain: B1 chain with R11Q, K43R
B5: KAZ-L27V: KAZ with single amino acid substitution L27V (protein)
chain: B1 chain with R11Q, L27V
B6: KAZ-A33N: KAZ with single amino acid substitution A33N (protein)
chain: B1 chain with R11Q, A33N
B7: KAZ-Q18L: KAZ with glutamine at position 18 substituted by leucine (protein, listed as Oplophorus gracilirostris)
chain: B1 chain with R11Q, Q18L
B8: KAZ-F68D: KAZ with single amino acid substitution F68D (protein)
chain: B1 chain with R11Q, F68D

System: not listed separately
Test: Luminescence activity of ZZ-fused KAZ mutants in crude enzyme solutions
Assay type: biochemical
Details: Table 4; ZZ-fused (pCold-ZZ-P-); 1 μL crude enzyme solution, 1 mM DTT; 1 μg coelenterazine
Description: To express the ZZ-fused KAZ mutants in E. coli, the recombinant plasmid prepared in EXAMPLE 6 was used. Crude enzyme solutions were prepared in the same manner as EXAMPLE 4 using the E. coli BL21 strain (Novagen, Madison, Wis.) as a host cell. The resultant crude enzyme solution, 5 μL, was subjected to SDS-PAGE analysis to confirm expression of the proteins (FIG. 2). In FIG. 2, M and 1 to 18 are the same as described in FIG. 1.
DTT was added to the crude enzyme solution obtained in EXAMPLE 7 at a final concentration of 1 mM and the mixture was allowed to stand in an ice water for more than 5 hours. A luminescence reaction was started by adding 1 μL of the crude enzyme solution to 100 μL of TE containing 1 μg of coelenterazine (manufactured by JNC Corp.). The luminescence activity was determined using a luminometer (manufactured by Atto Inc.: AB2200) for 60 seconds, and the maximum intensity of luminescence (Imax) was shown as relative luminescence activity.
To express the ZZ-fused KAZ mutants in E. coli, the recombinant plasmid constructed in EXAMPLE 16 and pCold-ZZ-P-V44I-KAZ, pCold-ZZ-P-A54I-KAZ, pCold-ZZ-P-Y138I-KAZ prepared in EXAMPLE 6 were used. Crude enzyme solutions were prepared in the same manner as EXAMPLE 7, using the E. coli BL21 strain (Novagen, Madison, Wis.) as a host cell. DTT was added to the crude enzyme solutions at a final concentration of 1 mM. The mixtures were allowed to stand over 5 hours on ice, and luminescence activities were then assayed. The luminescence activities were determined by the method described in EXAMPLE 8. Also, 5 μL of the resultant crude enzyme solutions were subjected to SDS-PAGE analysis to confirm protein expression (FIG. 4). In FIG. 4, M and 1 to 9 are as follows. M: molecular weight size markers; 1: ZZ-P-KAZ; 2: ZZ-P-KAZ-V44I; 3: ZZ-P-KAZ-A54I; 4: ZZ-P-KAZ-Y138I; 5: ZZ-P-KAZ-V44I-A54I; 6: ZZ-P-KAZ-V44I-Y138I; 7: ZZ-P-KAZ-A54I-Y138I; 8: ZZ-P-KAZ-V44I-A54I-Y138I; and 9: ZZ-P-dnKAZ.

Molecule | Relative Luminescence Activity (Imax)
B1 | 1.8
B2 | 2.5
B3 | 1.3
B4 | 0.6
B5 | 0.1
B6 | 1.0
B7 | 0.3
B8 | 2.7

System: not listed separately
Test: Luminescence activity of KAZ mutants (pCold II, E. coli) in supernatant and precipitate of crude enzyme solution
Assay type: biochemical
Details: Table 3; pCold II, E. coli BL21; 5 μL precipitate; 0.5 μg coelenterazine; 60 seconds
Description: In order to express the KAZ mutants in E. coli, the recombinant plasmid prepared in EXAMPLE 3 was used. The E. coli BL21 strain (Novagen, Madison, Wis.) was used as a host cell. The BL21 strain carrying the recombinant plasmid was incubated in 5 mL of Luria-Bertani medium (hereinafter designated as LB medium) containing ampicillin (50 μg/mL) at 37° C. for 18 hours. This seed culture, 0.1 mL, was inoculated to 10 mL of LB medium and incubated for 3 hours, followed by cooling in an ice-water bath for 1 hour. IPTG was added to the culture medium at a final concentration of 1 mM, followed by incubation at 15° C. for further 20 hours. After completion of the incubation, 1 mL of the cultured medium was harvested by centrifugation at 10,000 rpm for 2 minutes. The thus collected E. coli cells were suspended in 0.5 mL of 30 mM Tris-HCl (pH 7.6)-10 mM EDTA (manufactured by Wako Pure Chemical Industries, Ltd.) (hereinafter designated as TE). The E. coli cells were disrupted by sonication for 3 seconds using a Branson Model 250 Sonifier (Danbury, Conn.) to give a crude enzyme solution. After 0.5 mL of the crude enzyme solution was further centrifuged at 10,000 rpm for 2 minutes to separate the supernatant from the precipitate, the precipitate was suspended in 0.5 mL of TE. Then 20 μL each of the supernatant and precipitate were analyzed by SDS-PAGE to confirm the presence or absence of soluble and insoluble proteins. The results are shown in FIG. 1, wherein M and 1 to 17 denote: M: molecular weight size markers; 1: KAZ; 2 KAZ-A4E; 3: KAZ-Q11R; 4: KAZ-Q18L; 5: KAZ-L27V; 6: KAZ-A33N; 7: KAZ-K43R; 8: KAZ-V44I; 9: KAZ-A54I; 10: KAZ-F68D; 11: KAZ-L72Q; 12: KAZ-M75K; 13: KAZ-I90V; 14: KAZ-P115E; 15: KAZ-Q124K; 16: KAZ-Y138I; 17: KAZ-N166R and 18: dnKAZ.
A luminescence reaction was started by the addition of 5 μL each of the supernatant and precipitate obtained in EXAMPLE 4 to 100 μL of TE containing 0.5 μg of coelenterazine (manufactured by JNC Corp.). The luminescence activity was measured for 60 seconds using a luminometer (manufactured by Atto Corp.: AB2200) and expressed in terms of relative luminescence activity (Imax).
To express the KAZ mutants with two amino acid substitutions and three amino acid substitutions in E. coli using a pCold II vector, the recombinant plasmid constructed in EXAMPLE 13 and pCold-V44I-KAZ, pCold-A54I-KAZ, pCold-Y138I-KAZ prepared in EXAMPLE 3 were used. The supernatant and precipitate of each crude enzyme solution were prepared in the same manner as EXAMPLE 4, using the E. coli BL21 starin (Novagen, Madison, Wis.) as a host cell. The supernatant and precipitate, 20 μL each, were subjected to SDS-PAGE analysis to confirm the presence or absence of soluble proteins and insoluble proteins. In FIG. 3, M and 1 to 9 are as follows. M: molecular weight markers; 1: dnKAZ; 2: KAZ; 3: KAZ-V44I-A54I; 4: KAZ-V44I-Y138I; 5: KAZ-A54I-Y138I; 6: KAZ-V44I-A54I-Y138I; 7: KAZ-V44I; 8: KAZ-A54I; and 9: KAZ-Y138I.
The luminescence activities of 5 μL each of the supernatant and precipitate obtained in EXAMPLE 14 were determined in the same manner as EXAMPLE 5. The luminescence activity was assayed with a luminometer (manufactured by Atto Inc.: AB2200) for 60 seconds, and the maximum intensity of luminescence (Imax) was shown as relative luminescence activity.

Molecule | Relative Luminescence Activity (Imax) Precipitate
B1 | 0.3
B2 | 0.6
B3 | 0.4
B4 | 0.2
B5 | 0.1
B6 | 0.4
B7 | 0.2
B8 | 0.2

Same assay, conditions: Table 3; pCold II, E. coli BL21; 5 μL supernatant; 0.5 μg coelenterazine; 60 seconds

Molecule | Relative Luminescence Activity (Imax) Supernatant
B1 | 2.0
B2 | 7.2
B3 | 4.6
B4 | 1.8
B5 | 0.1
B6 | 1.0
B7 | 1.0
B8 | 5.4

System: CHO-K1 cells
Test: Luminescence activity of KAZ mutants expressed in animal culture cells with signal peptide of Gaussia luciferase for secretion
Assay type: cell-based, Chinese hamster
Details: Table 5; pcDNA3-GLsp- vectors; CHO-K1, 48 hours; 5 μL cell extracts; 0.5 μg coelenterazine
Description: Chinese hamster ovary cell line CHO-K1 was cultured in Ham's F-12 medium (manufactured by Wako Pure Chemical Industries, Ltd.) supplemented with 10% (v/v) fetal bovine serum (manufactured by Biowest Inc.). The CHO-K1 cells were plated in a 6-well plate in 1×10^5 cells/well/2 mL medium (n=2) and cultured in an incubator at 37° C. in 5% (v/v) CO2. After 24 hours, the purified recombinant plasmid was transfected to CHO-K1 cells using a FuGene HD transfection kit (manufactured by Promega Corp.), which was provided for subsequent experiment. Specifically, 1 μg of the recombinant plasmid pGL4.13 [Luc2/sv40], 0.1 μg of the internal standard vector and 3 μL of FuGene HD were added to 100 μL of the medium, which was allowed to stand at room temperature for 15 minutes. Subsequently, 100 μL of the DNA-FuGene complex was added to the cells in the 6 wells. After incubation for 48 hours, the culture medium was collected. On the other hand, the KAZ mutants expressed in the cells were washed 3 times with 3 mL of 1×PBS, then suspended in 1 mL of 1×PBS and disrupted on ice by ultrasonication, which was used as enzyme solutions of the cell-extracts of KAZ mutants.
A luminescence reaction was started by adding 5 μL of the culture media and cell extracts obtained in EXAMPLE 10 to 100 μL of 30 mM Tris-HCl (pH 7.6)-10 mM EDTA (manufactured by Wako Pure Chemical Industries, Ltd.) containing 0.5 μg of coelenterazine (manufactured by INC Corp.). The luminescence activity was determined using a luminometer (manufactured by Atto Inc.: AB2200) for 60 seconds, and the maximum intensity of luminescence (Imax) was defined as a percentage.
Culture media of the KAZ mutants with two amino acid substitutions and KAZ mutants with three amino acid substitutions and the enzyme solutions of the cell-extracts of KAZ mutants were prepared in the same manner as EXAMPLE 10.
In the resultant enzyme solutions and the enzyme solutions of the cell-extracts of KAZ mutants, luminescence activities were determined in the same manner as EXAMPLE 11.

Molecule | Relative Luminescence Activity (Imax) (%) Cell Extracts [%]
B1 | 0.1
B2 | 0.4
B3 | 0.2
B4 | 0.1
B5 | 0.02
B6 | 0.1
B7 | 0.02
B8 | 0.3

Same assay, conditions: Table 5; pcDNA3-GLsp- vectors; CHO-K1, 48 hours; 5 μL culture medium; 0.5 μg coelenterazine

Molecule | Relative Luminescence Activity (Imax) (%) Culture Medium
B1 | less than 0.01%
B2 | less than 0.01%
B3 | less than 0.01%
B4 | less than 0.01%
B5 | less than 0.01%
B6 | less than 0.01%
B7 | less than 0.01%
B8 | less than 0.01%
